Target: GST-ELAVL3 (UniProt Q14576 1-367)
Experiment: EMSA; 5 mM Mg2+; RNA-EMSA: 20 mM Tris-HCl (pH not stated), 100 mM NaCl, 5 mM MgCl2, 2 mM DTT, 37 C 1 h, 6% native gel at 4 C; pull-down: 50 pmol probe on beads, cell lysate, 4 C overnight
Settings: protein: recombinant; tags: N-terminal GST (pGEX-4T-1); label: 3'-biotin

Sequence of GST-ELAVL3 (Q14576 whole entry): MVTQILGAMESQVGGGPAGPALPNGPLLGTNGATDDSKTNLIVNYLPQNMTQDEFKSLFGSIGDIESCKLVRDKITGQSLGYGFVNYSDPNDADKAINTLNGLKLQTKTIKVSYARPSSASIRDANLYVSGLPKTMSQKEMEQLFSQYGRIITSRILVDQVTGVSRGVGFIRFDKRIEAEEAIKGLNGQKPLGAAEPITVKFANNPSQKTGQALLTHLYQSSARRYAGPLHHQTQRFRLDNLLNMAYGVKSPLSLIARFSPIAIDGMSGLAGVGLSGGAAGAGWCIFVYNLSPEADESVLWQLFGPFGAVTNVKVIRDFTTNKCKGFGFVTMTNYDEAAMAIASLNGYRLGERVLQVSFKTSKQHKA

Row | Binder | binding result
1 | CACUCUGCACAUCCUGAUCUCUCUCUCAGA (ssRNA) [MYCN-3'UTR-F1-MUT] | no binding
2 | UCCAUCCUAGACACUACCUCAGUCGACGUA (ssRNA) [RICTOR-3'UTR-F3-MUT] | no binding
